Tests used:
[1] = CHO lysates, GFP immunoblot and GFP fluorescence; conditions: glycan lost; control: wild-type TF-GFP
[2] = cell-surface TF antigen, radiolabelled mAb binding, CHO; conditions: glycan lost; control: wild-type TF-GFP
[3] = FX activation assay, CHO cell surface; conditions: glycan lost; control: wild-type TF-GFP
[4] = FX activation in freeze-thaw HUVEC lysates; conditions: glycan lost; control: wild-type TF-GFP
[5] = FX activation assay, HUVEC surface; conditions: glycan lost; control: wild-type TF-GFP
[6] = confocal microscopy, GFP and TF immunostaining, HUVEC; conditions: glycan lost; control: wild-type TF-GFP
TF antigen ELISA, PBMC = conditions: glycan lost; control: LPS-stimulated PBMC without tunicamycin
[7] = FX activation on intact PBMC; conditions: glycan lost; control: LPS-stimulated PBMC without tunicamycin

Protein	expression_or_secretion [1]	localisation_or_trafficking [2]	enzymatic_activity [3]	enzymatic_activity [4]	enzymatic_activity [5]	localisation_or_trafficking [6]	expression_or_secretion (TF antigen ELISA, PBMC)	enzymatic_activity [7]
tissue factor (TF): TFN11A (protein) parent chain: METPAWPRVPRPETAVARTLLLGWVFAQVAGASGTTNTVAAYNLTWKSTNFKTILEWEPKPVNQVYTVQISTKSGDWKSKCFYTTDTECDLTDEIVKDVKQTYLARVFSYPAGNVESTGSAGEPLYENSPEFTPYLETNLGQPTIQSFEQVGTKVNVTVEDERTLVRRNNTFLSLRDVFGKDLIYTLYYWKSSSSGKKTAKTNTNEFLIDVDKGENYCFSVQAVIPSRTVNRKSTDSPVECMGQEKGEFREIFYIIGAVVFVVIILVIILAISLHKCRKAGVGQSWKENSPLNVS	no change	no change	no change					
tissue factor (TF): TFN11A/N137A (protein) parent chain: METPAWPRVPRPETAVARTLLLGWVFAQVAGASGTTNTVAAYNLTWKSTNFKTILEWEPKPVNQVYTVQISTKSGDWKSKCFYTTDTECDLTDEIVKDVKQTYLARVFSYPAGNVESTGSAGEPLYENSPEFTPYLETNLGQPTIQSFEQVGTKVNVTVEDERTLVRRNNTFLSLRDVFGKDLIYTLYYWKSSSSGKKTAKTNTNEFLIDVDKGENYCFSVQAVIPSRTVNRKSTDSPVECMGQEKGEFREIFYIIGAVVFVVIILVIILAISLHKCRKAGVGQSWKENSPLNVS	no change	no change	no change					
tissue factor (TF): TFN11A/N124A/N137A (protein) parent chain: METPAWPRVPRPETAVARTLLLGWVFAQVAGASGTTNTVAAYNLTWKSTNFKTILEWEPKPVNQVYTVQISTKSGDWKSKCFYTTDTECDLTDEIVKDVKQTYLARVFSYPAGNVESTGSAGEPLYENSPEFTPYLETNLGQPTIQSFEQVGTKVNVTVEDERTLVRRNNTFLSLRDVFGKDLIYTLYYWKSSSSGKKTAKTNTNEFLIDVDKGENYCFSVQAVIPSRTVNRKSTDSPVECMGQEKGEFREIFYIIGAVVFVVIILVIILAISLHKCRKAGVGQSWKENSPLNVS	no change	no change	no change					
tissue factor (TF): TFN11A/N124A (protein) parent chain: METPAWPRVPRPETAVARTLLLGWVFAQVAGASGTTNTVAAYNLTWKSTNFKTILEWEPKPVNQVYTVQISTKSGDWKSKCFYTTDTECDLTDEIVKDVKQTYLARVFSYPAGNVESTGSAGEPLYENSPEFTPYLETNLGQPTIQSFEQVGTKVNVTVEDERTLVRRNNTFLSLRDVFGKDLIYTLYYWKSSSSGKKTAKTNTNEFLIDVDKGENYCFSVQAVIPSRTVNRKSTDSPVECMGQEKGEFREIFYIIGAVVFVVIILVIILAISLHKCRKAGVGQSWKENSPLNVS	no change	no change	no change					
tissue factor (TF): TFN11A/N124A/N137A-GFP (protein) parent chain: METPAWPRVPRPETAVARTLLLGWVFAQVAGASGTTNTVAAYNLTWKSTNFKTILEWEPKPVNQVYTVQISTKSGDWKSKCFYTTDTECDLTDEIVKDVKQTYLARVFSYPAGNVESTGSAGEPLYENSPEFTPYLETNLGQPTIQSFEQVGTKVNVTVEDERTLVRRNNTFLSLRDVFGKDLIYTLYYWKSSSSGKKTAKTNTNEFLIDVDKGENYCFSVQAVIPSRTVNRKSTDSPVECMGQEKGEFREIFYIIGAVVFVVIILVIILAISLHKCRKAGVGQSWKENSPLNVS				no change	no change	no change		
tissue factor (TF): tunicamycin (protein) parent chain: METPAWPRVPRPETAVARTLLLGWVFAQVAGASGTTNTVAAYNLTWKSTNFKTILEWEPKPVNQVYTVQISTKSGDWKSKCFYTTDTECDLTDEIVKDVKQTYLARVFSYPAGNVESTGSAGEPLYENSPEFTPYLETNLGQPTIQSFEQVGTKVNVTVEDERTLVRRNNTFLSLRDVFGKDLIYTLYYWKSSSSGKKTAKTNTNEFLIDVDKGENYCFSVQAVIPSRTVNRKSTDSPVECMGQEKGEFREIFYIIGAVVFVVIILVIILAISLHKCRKAGVGQSWKENSPLNVS							no change	no change
